Source: IntAct's records for PubMed 31515488

B1: Ribonuclease P protein subunit p30 (Homo sapiens), P78346 (parent)
chain: MAVFADLDLRAGSDLKALRGLVETAAHLGYSVVAINHIVDFKEKKQEIEKPVAVSELFTTLPIVQGKSRPIKILTRLTIIVSDPSHCNVLRATSSRARLYDVVAVFPKTEKLFHIACTHLDVDLVCITVTEKLPFYFKRPPINVAIDRGLAFELVYSPAIKDSTMRRYTISSALNLMQICKGKNVIISSAAERPLEIRGPYDVANLGLLFGLSESDAKAAVSTNCRAALLHGETRKTAFGIISTVKKPRPSEGDEDCLPASKKAKCEG
B2: Zyxin (Homo sapiens), Q15942 (parent)
chain: MAAPRPSPAISVSVSAPAFYAPQKKFGPVVAPKPKVNPFRPGDSEPPPAPGAQRAQMGRVGEIPPPPPEDFPLPPPPLAGDGDDAEGALGGAFPPPPPPIEESFPPAPLEEEIFPSPPPPPEEEGGPEAPIPPPPQPREKVSSIDLEIDSLSSLLDDMTKNDPFKARVSSGYVPPPVATPFSSKSSTKPAAGGTAPLPPWKSPSSSQPLPQVPAPAQSQTQFHVQPQPQPKPQVQLHVQSQTQPVSLANTQPRGPPASSPAPAPKFSPVTPKFTPVASKFSPGAPGGSGSQPNQKLGHPEALSAGTGSPQPPSFTYAQQREKPRVQEKQHPVPPPAQNQNQVRSPGAPGPLTLKEVEELEQLTQQLMQDMEHPQRQNVAVNELCGRCHQPLARAQPAVRALGQLFHIACFTCHQCAQQLQGQQFYSLEGAPYCEGCYTDTLEKCNTCGEPITDRMLRATGKAYHPHCFTCVVCARPLEGTSFIVDQANRPHCVPDYHKQYAPRCSVCSEPIMPEPGRDETVRVVALDKNFHMKCYKCEDCGKPLSIEADDNGCFPLDGHVLCRKCHTARAQT
partner: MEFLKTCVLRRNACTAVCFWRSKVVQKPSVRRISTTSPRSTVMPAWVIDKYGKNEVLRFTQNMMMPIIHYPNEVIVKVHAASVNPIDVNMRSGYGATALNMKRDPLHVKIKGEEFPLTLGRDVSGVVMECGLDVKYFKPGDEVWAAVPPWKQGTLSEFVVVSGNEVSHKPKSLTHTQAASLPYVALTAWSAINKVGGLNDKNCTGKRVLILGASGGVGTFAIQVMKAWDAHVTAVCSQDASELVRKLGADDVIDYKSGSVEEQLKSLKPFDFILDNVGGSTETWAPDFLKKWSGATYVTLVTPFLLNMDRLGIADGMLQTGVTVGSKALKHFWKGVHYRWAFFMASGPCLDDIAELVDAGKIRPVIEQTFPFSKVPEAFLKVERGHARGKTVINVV
B3: Centrin-1 (Homo sapiens), Q12798 (parent)
chain: MASGFKKPSAASTGQKRKVAPKPELTEDQKQEVREAFDLFDVDGSGTIDAKELKVAMRALGFEPRKEEMKKMISEVDREGTGKISFNDFLAVMTQKMSEKDTKEEILKAFRLFDDDETGKISFKNLKRVANELGENLTDEELQEMIDEADRDGDGEVNEEEFLRIMKKTSLY
partner: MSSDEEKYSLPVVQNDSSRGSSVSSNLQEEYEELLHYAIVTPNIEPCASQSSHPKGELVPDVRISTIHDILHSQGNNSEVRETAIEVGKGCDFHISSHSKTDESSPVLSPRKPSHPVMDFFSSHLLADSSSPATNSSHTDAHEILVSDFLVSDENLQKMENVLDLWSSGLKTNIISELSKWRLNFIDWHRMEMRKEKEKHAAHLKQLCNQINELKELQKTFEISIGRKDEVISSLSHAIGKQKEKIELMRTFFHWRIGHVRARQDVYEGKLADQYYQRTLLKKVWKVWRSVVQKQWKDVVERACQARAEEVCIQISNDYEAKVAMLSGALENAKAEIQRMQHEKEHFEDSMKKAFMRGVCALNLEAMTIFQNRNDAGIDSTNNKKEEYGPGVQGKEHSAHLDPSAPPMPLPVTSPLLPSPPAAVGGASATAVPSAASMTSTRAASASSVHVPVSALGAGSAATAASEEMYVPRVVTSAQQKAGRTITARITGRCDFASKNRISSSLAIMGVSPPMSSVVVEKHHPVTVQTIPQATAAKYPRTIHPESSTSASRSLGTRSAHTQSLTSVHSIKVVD
B4: Isoform 1 of Aminoacylase-1 (Homo sapiens), Q03154-1 (parent)
chain: MTSKGPEEEHPSVTLFRQYLRIRTVQPKPDYGAAVAFFEETARQLGLGCQKVEVAPGYVVTVLTWPGTNPTLSSILLNSHTDVVPVFKEHWSHDPFEAFKDSEGYIYARGAQDMKCVSIQYLEAVRRLKVEGHRFPRTIHMTFVPDEEVGGHQGMELFVQRPEFHALRAGFALDEGIANPTDAFTVFYSERSPWWVRVTSTGRPGHASRFMEDTAAEKLHKVVNSILAFREKEWQRLQSNPHLKEGSVTSVNLTKLEGGVAYNVIPATMSASFDFRVAPDVDFKAFEEQLQSWCQAAGEGVTLEFAQKWMHPQVTPTDDSNPWWAAFSRVCKDMNLTLEPEIMPAATDNRYIRAVGVPALGFSPMNRTPVLLHDHDERLHEAVFLRGVDIYTRLLPALASVPALPSDS
partner: B4 chain
B5: Aflatoxin B1 aldehyde reductase member 2 (Homo sapiens), O43488 (parent)
chain: MLSAASRVVSRAAVHCALRSPPPEARALAMSRPPPPRVASVLGTMEMGRRMDAPASAAAVRAFLERGHTELDTAFMYSDGQSETILGGLGLGLGGGDCRVKIATKANPWDGKSLKPDSVRSQLETSLKRLQCPQVDLFYLHAPDHGTPVEETLHACQRLHQEGKFVELGLSNYASWEVAEICTLCKSNGWILPTVYQGMYNATTRQVETELFPCLRHFGLRFYAYNPLAGGLLTGKYKYEDKDGKQPVGRFFGNSWAETYRNRFWKEHHFEAIALVEKALQAAYGASAPSVTSAALRWMYHHSQLQGAHGDAVILGMSSLEQLEQNLAATEEGPLEPAVVDAFNQAWHLVAHECPNYFR
B6: Four and a half LIM domains protein 2 (Homo sapiens), Q14192 (parent)
chain: MTERFDCHHCNESLFGKKYILREESPYCVVCFETLFANTCEECGKPIGCDCKDLSYKDRHWHEACFHCSQCRNSLVDKPFAAKEDQLLCTDCYSNEYSSKCQECKKTIMPGTRKMEYKGSSWHETCFICHRCQQPIGTKSFIPKDNQNFCVPCYEKQHAMQCVQCKKPITTGGVTYREQPWHKECFVCTACRKQLSGQRFTARDDFAYCLNCFCDLYAKKCAGCTNPISGLGGTKYISFEERQWHNDCFNCKKCSLSLVGRGFLTERDDILCPDCGKDI
partner: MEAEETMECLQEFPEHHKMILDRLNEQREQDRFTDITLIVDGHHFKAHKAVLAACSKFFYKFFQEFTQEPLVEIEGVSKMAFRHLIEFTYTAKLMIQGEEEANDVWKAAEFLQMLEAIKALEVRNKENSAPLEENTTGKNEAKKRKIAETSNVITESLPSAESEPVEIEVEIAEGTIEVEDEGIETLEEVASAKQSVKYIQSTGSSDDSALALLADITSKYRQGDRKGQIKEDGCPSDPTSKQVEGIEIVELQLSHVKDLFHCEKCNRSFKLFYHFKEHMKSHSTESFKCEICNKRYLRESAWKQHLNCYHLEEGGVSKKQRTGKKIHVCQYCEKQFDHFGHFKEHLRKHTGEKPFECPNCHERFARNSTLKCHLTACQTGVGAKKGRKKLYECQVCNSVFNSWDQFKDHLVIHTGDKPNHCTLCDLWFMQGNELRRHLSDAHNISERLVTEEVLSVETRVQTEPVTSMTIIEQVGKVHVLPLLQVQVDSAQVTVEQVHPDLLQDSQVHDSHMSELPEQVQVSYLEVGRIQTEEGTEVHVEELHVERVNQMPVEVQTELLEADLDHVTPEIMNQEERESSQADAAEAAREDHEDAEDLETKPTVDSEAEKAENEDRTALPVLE
B7: Tuftelin-interacting protein 11 (Homo sapiens), Q9UBB9 (parent)
chain: MSLSHLYRDGEGRIDDDDDERENFEITDWDLQNEFNPNRQRHWQTKEEATYGVWAERDSDDERPSFGGKRARDYSAPVNFISAGLKKGAAEEAELEDSDDEEKPVKQDDFPKDFGPRKLKTGGNFKPSQKGFAGGTKSFMDFGSWERHTKGIGQKLLQKMGYVPGRGLGKNAQGIINPIEAKQRKGKGAVGAYGSERTTQSMQDFPVVDSEEEAEEEFQKELSQWRKDPSGSKKKPKYSYKTVEELKAKGRISKKLTAPQKELSQVKVIDMTGREQKVYYSYSQISHKHNVPDDGLPLQSQQLPQSGKEAKAPGFALPELEHNLQLLIDLTEQEIIQNDRQLQYERDMVVNLFHELEKMTEVLDHEERVISNLSKVLEMVEECERRMQPDCSNPLTLDECARIFETLQDKYYEEYRMSDRVDLAVAIVYPLMKEYFKEWDPLKDCTYGTEIISKWKSLLENDQLLSHGGQDLSADAFHRLIWEVWMPFVRNIVTQWQPRNCDPMVDFLDSWVHIIPVWILDNILDQLIFPKLQKEVENWNPLTDTVPIHSWIHPWLPLMQARLEPLYSPIRSKLSSALQKWHPSDSSAKLILQPWKDVFTPGSWEAFMVKNIVPKLGMCLGELVINPHQQHMDAFYWVIDWEGMISVSSLVGLLEKHFFPKWLQVLCSWLSNSPNYEEITKWYLGWKSMFSDQVLAHPSVKDKFNEALDIMNRAVSSNVGAYMQPGARENIAYLTHTERRKDFQYEAMQERREAENMAQRGIGVAASSVPMNFKDLIETKAEEHNIVFMPVIGKRHEGKQLYTFGRIVIYIDRGVVFVQGEKTWVPTSLQSLIDMAK
partner: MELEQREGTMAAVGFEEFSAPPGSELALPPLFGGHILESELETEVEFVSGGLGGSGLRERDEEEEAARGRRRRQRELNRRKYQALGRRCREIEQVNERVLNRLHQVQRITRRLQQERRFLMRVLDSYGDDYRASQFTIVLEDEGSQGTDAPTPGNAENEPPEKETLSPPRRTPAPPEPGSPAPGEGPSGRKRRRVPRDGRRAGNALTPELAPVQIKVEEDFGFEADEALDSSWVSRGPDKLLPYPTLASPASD
B8: Nuclear receptor-interacting protein 1 (Homo sapiens), P48552 (parent)
chain: MTHGEELGSDVHQDSIVLTYLEGLLMHQAAGGSGTAVDKKSAGHNEEDQNFNISGSAFPTCQSNGPVLNTHTYQGSGMLHLKKARLLQSSEDWNAAKRKRLSDSIMNLNVKKEALLAGMVDSVPKGKQDSTLLASLLQSFSSRLQTVALSQQIRQSLKEQGYALSHDSLKVEKDLRCYGVASSHLKTLLKKSKVKDQKPDTNLPDVTKNLIRDRFAESPHHVGQSGTKVMSEPLSCAARLQAVASMVEKRASPATSPKPSVACSQLALLLSSEAHLQQYSREHALKTQNANQAASERLAAMARLQENGQKDVGSYQLPKGMSSHLNGQARTSSSKLMASKSSATVFQNPMGIIPSSPKNAGYKNSLERNNIKQAANNSLLLHLLKSQTIPKPMNGHSHSERGSIFEESSTPTTIDEYSDNNPSFTDDSSGDESSYSNCVPIDLSCKHRTEKSESDQPVSLDNFTQSLLNTWDPKVPDVDIKEDQDTSKNSKLNSHQKVTLLQLLLGHKNEENVEKNTSPQGVHNDVSKFNTQNYARTSVIESPSTNRTTPVSTPPLLTSSKAGSPINLSQHSLVIKWNSPPYVCSTQSEKLTNTASNHSMDLTKSKDPPGEKPAQNEGAQNSATFSASKLLQNLAQCGMQSSMSVEEQRPSKQLLTGNTDKPIGMIDRLNSPLLSNKTNAVEENKAFSSQPTGPEPGLSGSEIENLLERRTVLQLLLGNPNKGKSEKKEKTPLRDESTQEHSERALSEQILMVKIKSEPCDDLQIPNTNVHLSHDAKSAPFLGMAPAVQRSAPALPVSEDFKSEPVSPQDFSFSKNGLLSRLLRQNQDSYLADDSDRSHRNNEMALLESKNLCMVPKKRKLYTEPLENPFKKMKNNIVDAANNHSAPEVLYGSLLNQEELKFSRNDLEFKYPAGHGSASESEHRSWARESKSFNVLKQLLLSENCVRDLSPHRSNSVADSKKKGHKNNVTNSKPEFSISSLNGLMYSSTQPSSCMDNRTFSYPGVVKTPVSPTFPEHLGCAGSRPESGLLNGCSMPSEKGPIKWVITDAEKNEYEKDSPRLTKTNPILYYMLQKGGNSVTSRETQDKDIWREASSAESVSQVTAKEELLPTAETKASFFNLRSPYNSHMGNNASRPHSANGEVYGLLGSVLTIKKESE
partner: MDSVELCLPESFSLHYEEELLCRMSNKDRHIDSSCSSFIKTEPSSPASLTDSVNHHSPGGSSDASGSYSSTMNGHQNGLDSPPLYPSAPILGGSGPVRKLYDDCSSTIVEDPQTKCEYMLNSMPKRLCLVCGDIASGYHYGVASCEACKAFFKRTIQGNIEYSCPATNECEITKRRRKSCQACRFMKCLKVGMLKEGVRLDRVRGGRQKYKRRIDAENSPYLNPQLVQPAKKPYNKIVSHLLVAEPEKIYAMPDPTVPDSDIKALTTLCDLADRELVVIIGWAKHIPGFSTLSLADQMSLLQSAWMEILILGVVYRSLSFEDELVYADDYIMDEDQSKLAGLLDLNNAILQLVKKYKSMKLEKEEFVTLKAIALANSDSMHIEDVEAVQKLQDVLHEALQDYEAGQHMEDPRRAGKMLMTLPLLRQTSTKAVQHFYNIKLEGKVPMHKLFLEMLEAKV

Variants of: B1
Settings: with hm20a_human HMG20A

Variant | effect of a mutation on the interaction
G12D | with no effect

Variants of: B2
Settings: with rt4i1_human RTN4IP1, Q8WWV3

Variant | effect of a mutation on the interaction
R563Q | with no effect
R489W | with no effect

Variants of: B3
Settings: with poc5_human POC5, Q8NA72

Variant | effect of a mutation on the interaction
M72T | with no effect

Variants of: B4
Settings: with acy1_human ACY1, Q03154

Variant | effect of a mutation on the interaction
E381D | with no effect

Variants of: B5
Settings: with ark73_human AKR7A3, O95154
Sequence of ark73_human AKR7A3, O95154 (O95154 whole entry): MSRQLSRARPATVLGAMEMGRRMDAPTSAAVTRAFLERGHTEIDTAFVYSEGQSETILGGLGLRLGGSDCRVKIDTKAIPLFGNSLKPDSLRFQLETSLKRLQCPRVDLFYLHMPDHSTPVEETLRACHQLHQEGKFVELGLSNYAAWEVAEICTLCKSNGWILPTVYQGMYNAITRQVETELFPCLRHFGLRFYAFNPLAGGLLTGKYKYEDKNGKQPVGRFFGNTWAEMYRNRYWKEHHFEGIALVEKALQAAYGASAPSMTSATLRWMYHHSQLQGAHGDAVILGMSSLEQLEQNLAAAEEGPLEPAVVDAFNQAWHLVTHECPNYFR

Variant | effect of a mutation on the interaction
A142T | disrupting interaction strength

Variants of: B5
Settings: with cep70_human CEP70, Q8NHQ1
Sequence of cep70_human CEP70, Q8NHQ1 (Q8NHQ1 whole entry): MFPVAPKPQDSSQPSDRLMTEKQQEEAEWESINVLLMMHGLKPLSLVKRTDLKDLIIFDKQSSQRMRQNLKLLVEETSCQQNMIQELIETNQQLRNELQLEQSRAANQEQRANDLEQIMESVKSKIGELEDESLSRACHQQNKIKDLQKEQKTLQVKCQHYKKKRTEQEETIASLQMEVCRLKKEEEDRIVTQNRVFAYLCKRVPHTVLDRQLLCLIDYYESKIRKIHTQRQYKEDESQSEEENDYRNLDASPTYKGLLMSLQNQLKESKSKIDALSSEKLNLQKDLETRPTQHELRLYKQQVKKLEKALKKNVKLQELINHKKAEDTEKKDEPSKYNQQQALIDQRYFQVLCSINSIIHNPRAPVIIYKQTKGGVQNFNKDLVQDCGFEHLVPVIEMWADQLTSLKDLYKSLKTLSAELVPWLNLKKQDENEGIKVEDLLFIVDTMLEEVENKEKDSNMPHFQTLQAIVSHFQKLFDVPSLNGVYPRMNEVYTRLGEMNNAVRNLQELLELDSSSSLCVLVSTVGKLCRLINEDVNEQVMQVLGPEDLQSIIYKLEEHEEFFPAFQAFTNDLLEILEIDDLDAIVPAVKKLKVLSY

Variant | effect of a mutation on the interaction
A142T | disrupting interaction strength

Variants of: B6
Settings: with zn131_human ZNF131, P52739

Variant | effect of a mutation on the interaction
A37S | with no effect
N95K | with no effect

Variants of: B7
Settings: with tfpt_human TFPT

Variant | effect of a mutation on the interaction
R8Q | with no effect
S688L | with no effect

Variants of: B8
Settings: with err3_human ESRRG

Variant | effect of a mutation on the interaction
K385I | with no effect
